The text below walks through data of patent US20240287154A1, “MC3R AGONIST PEPTIDES” (The Regents of the University of Michigan, priority 2021, published 2024).

Non-standard residues stand in square brackets, D forms with d. dNle = CCCC[C@@H](N)C(=O)O; Nle = CCCC[C@H](N)C(=O)O; dNMeA = CN[C@H](C)C(=O)O; R1 = not defined here

First the molecules themselves.
B1: CTX-1181 (peptide)
peptide: Ac-[Nle][dV]HFR[dW]DRFG-OH
SMILES: CCCC[C@H](NC(C)=O)C(=O)N[C@@H](C(=O)N[C@@H](Cc1c[nH]cn1)C(=O)N[C@@H](Cc1ccccc1)C(=O)N[C@@H](CCCNC(=N)N)C(=O)N[C@H](Cc1c[nH]c2ccccc12)C(=O)N[C@@H](CC(=O)O)C(=O)N[C@@H](CCCNC(=N)N)C(=O)N[C@@H](Cc1ccccc1)C(=O)NCC(=O)O)C(C)C
B2: CTX-1113 (peptide)
peptide: Ac-TGH[dF]R[dW]D-NH2
SMILES: CC(=O)N[C@H](C(=O)NCC(=O)N[C@@H](Cc1c[nH]cn1)C(=O)N[C@H](Cc1ccccc1)C(=O)N[C@@H](CCCNC(=N)N)C(=O)N[C@H](Cc1c[nH]c2ccccc12)C(=O)N[C@@H](CC(=O)O)C(N)=O)[C@@H](C)O
B3: CTX-1119 (peptide)
peptide: H-YV[Nle][dA]HFR[dW]DRF-NH2
SMILES: CCCC[C@H](NC(=O)[C@@H](NC(=O)[C@@H](N)Cc1ccc(O)cc1)C(C)C)C(=O)N[C@H](C)C(=O)N[C@@H](Cc1c[nH]cn1)C(=O)N[C@@H](Cc1ccccc1)C(=O)N[C@@H](CCCNC(=N)N)C(=O)N[C@H](Cc1c[nH]c2ccccc12)C(=O)N[C@@H](CC(=O)O)C(=O)N[C@@H](CCCNC(=N)N)C(=O)N[C@@H](Cc1ccccc1)C(N)=O
B4: CTX-1112 (peptide)
peptide: Ac-TGHFR[dW]D-NH2
SMILES: CC(=O)N[C@H](C(=O)NCC(=O)N[C@@H](Cc1c[nH]cn1)C(=O)N[C@@H](Cc1ccccc1)C(=O)N[C@@H](CCCNC(=N)N)C(=O)N[C@H](Cc1c[nH]c2ccccc12)C(=O)N[C@@H](CC(=O)O)C(N)=O)[C@@H](C)O
B5: CTX-1106 (peptide)
peptide: H-YVE[dA]H[dF]R[dW]DRFG-OH
SMILES: CC(C)[C@H](NC(=O)[C@@H](N)Cc1ccc(O)cc1)C(=O)N[C@@H](CCC(=O)O)C(=O)N[C@H](C)C(=O)N[C@@H](Cc1c[nH]cn1)C(=O)N[C@H](Cc1ccccc1)C(=O)N[C@@H](CCCNC(=N)N)C(=O)N[C@H](Cc1c[nH]c2ccccc12)C(=O)N[C@@H](CC(=O)O)C(=O)N[C@@H](CCCNC(=N)N)C(=O)N[C@@H](Cc1ccccc1)C(=O)NCC(=O)O
B6: CTX-1123 (peptide)
peptide: Ac-[Nle][dA]HFR[dW]D-NH2
SMILES: CCCC[C@H](NC(C)=O)C(=O)N[C@H](C)C(=O)N[C@@H](Cc1c[nH]cn1)C(=O)N[C@@H](Cc1ccccc1)C(=O)N[C@@H](CCCNC(=N)N)C(=O)N[C@H](Cc1c[nH]c2ccccc12)C(=O)N[C@@H](CC(=O)O)C(N)=O
B7: CTX-1121 (peptide)
peptide: Ac-V[Nle][dA]HFR[dW]DRFG-OH
SMILES: CCCC[C@H](NC(=O)[C@@H](NC(C)=O)C(C)C)C(=O)N[C@H](C)C(=O)N[C@@H](Cc1c[nH]cn1)C(=O)N[C@@H](Cc1ccccc1)C(=O)N[C@@H](CCCNC(=N)N)C(=O)N[C@H](Cc1c[nH]c2ccccc12)C(=O)N[C@@H](CC(=O)O)C(=O)N[C@@H](CCCNC(=N)N)C(=O)N[C@@H](Cc1ccccc1)C(=O)NCC(=O)O
B8: CTX-1182 (peptide)
peptide: Ac-[Nle][dNle]HFR[dW]DRFG-OH
SMILES: CCCC[C@H](NC(C)=O)C(=O)N[C@H](CCCC)C(=O)N[C@@H](Cc1c[nH]cn1)C(=O)N[C@@H](Cc1ccccc1)C(=O)N[C@@H](CCCNC(=N)N)C(=O)N[C@H](Cc1c[nH]c2ccccc12)C(=O)N[C@@H](CC(=O)O)C(=O)N[C@@H](CCCNC(=N)N)C(=O)N[C@@H](Cc1ccccc1)C(=O)NCC(=O)O
B9: CTX-1107 (peptide)
peptide: H-YV[Nle]GH[dF]R[dW]D-NH2
SMILES: CCCC[C@H](NC(=O)[C@@H](NC(=O)[C@@H](N)Cc1ccc(O)cc1)C(C)C)C(=O)NCC(=O)N[C@@H](Cc1c[nH]cn1)C(=O)N[C@H](Cc1ccccc1)C(=O)N[C@@H](CCCNC(=N)N)C(=O)N[C@H](Cc1c[nH]c2ccccc12)C(=O)N[C@@H](CC(=O)O)C(N)=O
B10: CTX-1111 (peptide)
peptide: Ac-SGH[dF]R[dW]D-NH2
SMILES: CC(=O)N[C@@H](CO)C(=O)NCC(=O)N[C@@H](Cc1c[nH]cn1)C(=O)N[C@H](Cc1ccccc1)C(=O)N[C@@H](CCCNC(=N)N)C(=O)N[C@H](Cc1c[nH]c2ccccc12)C(=O)N[C@@H](CC(=O)O)C(N)=O
B11: CTX-1185 (peptide)
peptide: Ac-[Nle]GHFR[dW]DRFG-OH
SMILES: CCCC[C@H](NC(C)=O)C(=O)NCC(=O)N[C@@H](Cc1c[nH]cn1)C(=O)N[C@@H](Cc1ccccc1)C(=O)N[C@@H](CCCNC(=N)N)C(=O)N[C@H](Cc1c[nH]c2ccccc12)C(=O)N[C@@H](CC(=O)O)C(=O)N[C@@H](CCCNC(=N)N)C(=O)N[C@@H](Cc1ccccc1)C(=O)NCC(=O)O
B12: CTX-1109 (peptide)
peptide: H-YV[Nle][dA]H[dF]R[dW]D-NH2
SMILES: CCCC[C@H](NC(=O)[C@@H](NC(=O)[C@@H](N)Cc1ccc(O)cc1)C(C)C)C(=O)N[C@H](C)C(=O)N[C@@H](Cc1c[nH]cn1)C(=O)N[C@H](Cc1ccccc1)C(=O)N[C@@H](CCCNC(=N)N)C(=O)N[C@H](Cc1c[nH]c2ccccc12)C(=O)N[C@@H](CC(=O)O)C(N)=O
B13: CTX-1146 (peptide)
peptide: Ac-[Nle][dA]HFR[dW]D[dR]FG-OH
SMILES: CCCC[C@H](NC(C)=O)C(=O)N[C@H](C)C(=O)N[C@@H](Cc1c[nH]cn1)C(=O)N[C@@H](Cc1ccccc1)C(=O)N[C@@H](CCCNC(=N)N)C(=O)N[C@H](Cc1c[nH]c2ccccc12)C(=O)N[C@@H](CC(=O)O)C(=O)N[C@H](CCCNC(=N)N)C(=O)N[C@@H](Cc1ccccc1)C(=O)NCC(=O)O
B14: CTX-1184 (peptide)
peptide: Ac-[Nle][dP]HFR[dW]DRFG-OH
SMILES: CCCC[C@H](NC(C)=O)C(=O)N1CCC[C@@H]1C(=O)N[C@@H](Cc1c[nH]cn1)C(=O)N[C@@H](Cc1ccccc1)C(=O)N[C@@H](CCCNC(=N)N)C(=O)N[C@H](Cc1c[nH]c2ccccc12)C(=O)N[C@@H](CC(=O)O)C(=O)N[C@@H](CCCNC(=N)N)C(=O)N[C@@H](Cc1ccccc1)C(=O)NCC(=O)O
B15: CTX-1183 (peptide)
peptide: Ac-[Nle][dNMeA]HFR[dW]DRFG-OH
SMILES: CCCC[C@H](NC(C)=O)C(=O)N(C)[C@H](C)C(=O)N[C@@H](Cc1c[nH]cn1)C(=O)N[C@@H](Cc1ccccc1)C(=O)N[C@@H](CCCNC(=N)N)C(=O)N[C@H](Cc1c[nH]c2ccccc12)C(=O)N[C@@H](CC(=O)O)C(=O)N[C@@H](CCCNC(=N)N)C(=O)N[C@@H](Cc1ccccc1)C(=O)NCC(=O)O

Sequence of human MC3R (P41968 whole entry): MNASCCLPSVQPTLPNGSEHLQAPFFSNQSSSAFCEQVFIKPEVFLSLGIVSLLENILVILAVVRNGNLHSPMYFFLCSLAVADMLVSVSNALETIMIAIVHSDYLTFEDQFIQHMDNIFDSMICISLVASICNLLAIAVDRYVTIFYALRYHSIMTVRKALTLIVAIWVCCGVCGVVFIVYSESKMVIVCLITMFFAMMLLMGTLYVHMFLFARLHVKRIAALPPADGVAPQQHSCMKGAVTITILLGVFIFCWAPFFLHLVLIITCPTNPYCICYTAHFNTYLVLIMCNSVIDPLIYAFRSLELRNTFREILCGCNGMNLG

This assay concerns the target human MC3R (human, UniProt P41968 1-323). The assay can be described thus: cell-based or functional assay.
For B1, the “MC3R cAMP (EC50)” value was found to be 102 nM and the “MC3R selectivity (relative to MC4R)” value came out at 718.
On the same counts, the results for YVXAHFRWDRFG (D-Tyr at 1; Nle at 3; D-Ala at 4; D-Trp at 8) [CTX-1125] are 1.7 nM and 747.
For B2 the same measures were 4430 nM and 0.4.
For the molecule B3, the “MC3R cAMP (EC50)” value amounted to 1.9 nM and the “MC3R selectivity (relative to MC4R)” value was determined as 24.
In the case of B4, the “MC3R cAMP (EC50)” value is 4090 nM and the “MC3R selectivity (relative to MC4R)” value turned out to be 8.6.
As for B5, the “MC3R cAMP (EC50)” value worked out at 5.8 nM and the “MC3R selectivity (relative to MC4R)” value is 120.
For B6, the “MC3R cAMP (EC50)” value came to 213 nM and the “MC3R selectivity (relative to MC4R)” value is 28.
On to B7, for which the “MC3R cAMP (EC50)” value was 3.1 nM and the “MC3R selectivity (relative to MC4R)” value turned out to be 2120.
On to B8, for which the “MC3R cAMP (EC50)” value amounted to 14.6 nM and the “MC3R selectivity (relative to MC4R)” value turned out to be 1410.
In the case of YVXFHFRWDRFG (Nle at 3; D-Phe at 4; D-Trp at 8) [CTX-1136], the “MC3R cAMP (EC50)” value was 1.9 nM and the “MC3R selectivity (relative to MC4R)” value is 37.
For the molecule R1-V[Nle][dA]HFR[dW]DRFG-OH (reading uncertain) [CTX-1149 (R1, SEQ ID NO 66)], the “MC3R cAMP (EC50)” value turned out to be 710 nM and the “MC3R selectivity (relative to MC4R)” value was 6800.
On to YVXAHFRWDRFG (Nle at 3; D-Trp at 8) [CTX-1133], for which the “MC3R cAMP (EC50)” value came out at 1.4 nM and the “MC3R selectivity (relative to MC4R)” value turned out to be 7.4.
Consider B9, for which the “MC3R cAMP (EC50)” value is 4.4 nM and the “MC3R selectivity (relative to MC4R)” value is 2.4.
As to B10, the “MC3R cAMP (EC50)” value amounted to 17100 nM and the “MC3R selectivity (relative to MC4R)” value came to 0.1.
Regarding Ac-SGHFR[dW]D-NH2 [CTX-1110], the “MC3R cAMP (EC50)” value was determined as 7400 nM.
In the case of Ac-[Nle][dA]HFR[dW]DR[dF]K(R1)-OH (reading uncertain) [CTX-1161], the “MC3R cAMP (EC50)” value was determined as 952 nM and the “MC3R selectivity (relative to MC4R)” value is 22.
In the case of B11, the “MC3R cAMP (EC50)” value is 2.7 nM and the “MC3R selectivity (relative to MC4R)” value was 2310.
In the case of B12, the “MC3R cAMP (EC50)” value turned out to be 13.1 nM and the “MC3R selectivity (relative to MC4R)” value came out at 10.6.
As for B13, the “MC3R cAMP (EC50)” value is 170 nM.
As for YVXAHFRWDRFG (NMe-Tyr at 1; Nle at 3; D-Ala at 4; D-Trp at 8) [CTX-1124], the “MC3R cAMP (EC50)” value came out at 1.7 nM and the “MC3R selectivity (relative to MC4R)” value turned out to be 69.
For B14, the “MC3R cAMP (EC50)” value was 607 nM and the “MC3R selectivity (relative to MC4R)” value was found to be 28.
On the same counts, the results for YVXAHFRWDRFG (Nle at 3; D-Ala at 4; D-Trp at 8; C-terminal amide) [CTX-1118] are 1.2 nM and 59.
On the same counts, the results for YVXAHFRWDRFG (Nle at 3; D-Ala at 4; D-Phe at 6; D-Trp at 8) [CTX-1104] are 3.5 nM and 27.
Take B15: the “MC3R cAMP (EC50)” value was 71.6 nM and the “MC3R selectivity (relative to MC4R)” value amounted to 515.
